Reference: US20020146777A1, “Canine parathyroid hormone 1 receptor” (priority 2000, published 2002)
“Also recorded” adds a separate entry of the source.

How the values were obtained:
canine PTH1 receptor [1] = target: T1, canine PTH1 receptor (Canis lupus familiaris, UniProt Q9TU31); assay: Intracellular cAMP accumulation in CHO cells transiently transfected with canine PTH1; type: cell-based; settings: peptide 10^-7 M, 15 minutes at 37° C.
T1 construct: A 1868 bp DNA fragment containing the complete coding region of canine PTH1 was generated by PCR; expressed in transfected cells; host or cells: CHO-K1 cells, transient transfection with canine PTH1-pCR3.1
T1 sequence (Q9TU31 29-595): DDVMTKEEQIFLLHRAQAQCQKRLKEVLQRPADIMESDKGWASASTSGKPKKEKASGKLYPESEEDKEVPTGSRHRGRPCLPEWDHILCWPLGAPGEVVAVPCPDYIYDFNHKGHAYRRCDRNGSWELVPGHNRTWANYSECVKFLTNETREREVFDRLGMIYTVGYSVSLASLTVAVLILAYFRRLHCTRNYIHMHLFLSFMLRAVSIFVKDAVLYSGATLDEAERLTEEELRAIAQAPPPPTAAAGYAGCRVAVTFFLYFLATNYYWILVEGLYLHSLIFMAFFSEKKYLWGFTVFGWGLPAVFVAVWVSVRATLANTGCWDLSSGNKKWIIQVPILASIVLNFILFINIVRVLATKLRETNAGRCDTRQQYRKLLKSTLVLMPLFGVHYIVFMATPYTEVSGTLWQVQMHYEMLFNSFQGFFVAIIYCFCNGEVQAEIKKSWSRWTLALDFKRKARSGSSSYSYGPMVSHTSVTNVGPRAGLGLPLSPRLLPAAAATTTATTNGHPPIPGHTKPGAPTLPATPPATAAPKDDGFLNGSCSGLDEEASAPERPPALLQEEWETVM
Experimental: (§1) CHO-K1 cells were purchased from ATCC (Rockville, Md.) and maintained in Dulbecco's modified Eagle's medium/F12 (DMEM/F12, Life Technologies, Gaithersburg, Md.) supplemented with 10% fetal calf serum (FCS, Gemini Bio-Products, Calabasas, Calif.). CHO cells were plated in 12 and 24-well plates (Becton Dickinson, Franklin Lakes, N.J.) at 1.6×10^6 cells/plate in DMEM/F12 supplemented with 10% FCS. 24 hours later, each plate of cells was transfected with 10 μg of the canine PTH1-pCR3.1 expression plasmid using Lipofectamine reagent (Life Technologies). Total volume of DNA-lipofectamine mix was 500 μl/well and 250 μl/well in the 12- and 24-well plates, respectively. After 5 hours, an equal volume of media supplemented with 20% FCS was added to each well and after 24 hours, the media was replaced with growth media. The cells were then allowed to grow for an additional 24 hours, at which time the cells in the 24-well plates were used in the PTH binding assay and the cells in the 12-well plates were used to determine receptor activation by measuring cAMP.
(§2) ^125I-human PTH 1-34 amide (2000 Ci/mmol) was purchased from Amersham (Arlington Heights, Ill.). Human PTH 1-34 and human PTHrP 1-34 were purchased from Peninsula Laboratories (San Carlos, Calif.). Canine PTH (1-34) and PTHrP (1-34) (Rosol, 1995) were custom synthesized by Princeton BioMolecules (Columbus, Ohio). Human aldosterone secretion inhibitory factor (1-35), used as a similarly sized non-specific peptide, was purchased from Sigma.
To measure stimulation of cAMP production, cells transiently transfected with canine PTH1 were rinsed once with test medium (serum-free DMEM/F12 containing 0.2 mM 3-isobutyl-1-methylxanthine (IBMX; Calbiochem, La Jolla, Calif.)), then preincubated with 1 ml/well test medium for 10 minutes at 37° C. This medium was removed and cells were incubated with test medium containing the indicated peptides (10^−7 M) for 15 minutes at 37° C. […] Upon thawing cAMP was measured using a commercially available ELISA kit (Cayman Chemical, Ann Arbor, Mich.).

canine PTH1 receptor [2] = target: T1, canine PTH1 receptor; assay: Whole cell 125I-human PTH (1-34) competition binding to canine PTH1 transiently transfected CHO cells; settings: canine PTH1/pCR3.1 transiently transfected CHO cells, 2 hours on ice
Experimental: as §1, §2
Canine PTH1 transiently transfected CHO cells in 24-well plates were subjected to whole cell human ^125I-PTH (1-34) competition binding. Culture media was removed, cell monolayers washed once each with ice-cold Dulbecco's phosphate buffered saline (Life Technologies) and ice-cold assay buffer (AB; 50 mM Tris-HCl, 100 mM NaCl, 2 mM CaCl2, 5 mM KCl, 0.5% heat inactivated FCS (Life Technologies), and 5% heat-inactivated horse serum (Life Technologies), pH 7.7). Subsequent to adding 225 μl of AB to each well, 25 μl of 10x peptide (10^−4- […]) in AB containing 800 cpms/μl of ^125I-human PTH (1-34) was added to each of three wells. Plates were incubated for 2 hours on ice, binding mix removed by aspiration, washed 2x with ice-cold assay AB, cells solubilized in 1% SDS and total bound counts determined. Percent bound ^125I-PTH (1-34) was calculated using the following equation: [formula]

intracellular cAMP accumulation (PTH1 activation) (canine PTH1 receptor [1]) | binding to canine PTH1 (displacement of 125I-hPTH (1-34)) (canine PTH1 receptor [2]; listed as canine PTHrP) | binding to canine PTH1 (displacement of 125I-hPTH (1-34)) (canine PTH1 receptor [2]; listed as canine/human parathyroid hormone related peptide (PTHrP) (1-34)) | binding to canine PTH1 (displacement of 125I-hPTH (1-34)) (canine PTH1 receptor [2]; listed as canine PTH) | binding to canine PTH1 (displacement of 125I-hPTH (1-34)) (canine PTH1 receptor [2]; listed as Human PTH) | Substance | binding to canine PTH1 (displacement of 125I-hPTH (1-34)) (canine PTH1 receptor [2])
increase in intracellular cAMP | specific binding | specific displacement | – | – | canine/human PTHrP (1-34): Canine/human parathyroid hormone related peptide fragment 1-34 | high affinity binding
increase in intracellular cAMP | – | – | specific binding | – | canine PTH (1-34): Canine parathyroid hormone fragment 1-34, custom synthesized by Princeton BioMolecules (SVSEIQFMHNLGKHLSSMERVEWLRKKLQDVHNF) | specific displacement; also recorded: high affinity binding
increase in intracellular cAMP | – | – | – | specific binding | human PTH (1-34): Human parathyroid hormone fragment 1-34, purchased from Peninsula Laboratories | specific displacement; also recorded: high affinity binding
